Source: patent US20100168016A1, “DIAGNOSIS AND TREATMENT OF DISEASES CAUSED BY MISFOLDED PROTEINS” (THE JACKSON LABORATORY, priority 2007, published 2010)

Legend:
[1] = test system: sti/sti embryonic fibroblasts; assay: serine-induced cell death in embryonic fibroblasts; format: cell-based, mouse; settings: ANKRD16^CAST/+; sti/sti fibroblasts vs sti/sti, increasing serine
Text: FIG. 5. A graph depicting viability curves for mouse embryonic fibroblasts (MEFs) with increasing concentrations of serine in the culture media. ANKRD 16 (Stim^CAST) rescues serine-mediated cell death in sti/sti fibroblasts.
We analyzed serine-induced cell death in +/+, ANKRD16^CAST/+; sti/sti, and sti/sti embryonic fibroblasts. Mouse embryonic fibroblasts were isolated from mouse embryos carrying no mutation (WT; C57BL/6J), the CAST-derived ANKRD16 gene (ANKRD16^CAST/+) and the sticky (sti/sti) mutation, or carrying the C57BL/6 ANKRD16 gene and the sti mutation (sti/sti).

sti/sti Purkinje cells [2] = assay: Purkinje cell survival in sti/sti mice carrying the Pcp2-driven ANKRD16 transgene; format: in vivo, mouse
Text: To determine if ANKRD16 can rescue neuron death in a cell autonomous fashion, we transgenically expressed the ANKRD16 cDNA in Purkinje cells and examined the role of this transgene in Purkinje cell survival in sti/sti mice. ANKRD16 coding sequence was amplified by polymerase chain reaction from cDNA by using Pfu DNA polymerase (Stratagene), purified by agarose gel electrophoresis and ligated into the expression vector. Transgenic (TgPcp2-ANKRD16) mice carrying the full-length ANKRD16 cDNA (ANKRD16^361 or CAST allele) were generated on the inbred C57BL/6J background by microinjection of the purified DNA into C57BL/6J zygotes.

sticky mutant mice = assay: fertility (number of live offspring) of sticky mutant mice; format: in vivo, mouse; settings: ANKRD16^CAST crossed into sti/sti; 7 matings, females 8-9 weeks
Method: FIGS. 7. A graph depicting litter size (y axis) in WT, STIM and STI mice (x axis). Expression of ANKRD16 protein can restore the reduced fertility in sticky mutant mice. “WT” refers to C57BL/6J wild type mice, “STIM” refers to sticky mutant mice carrying the modifier gene ANKRD16, and STI means homozygous sticky mutant mice.
Female mice of the various genotypes at the age of at 8-9 weeks were mated and the fertility was determined by counting the number of live offspring. When mating C57BL/6J mice (WT), which are wild type, the average litter size was 6.87 from 8 matings with a total of 55 offspring. […] When the modifier gene ANKRD16^CAST was crossed into the sti/sti mutations, the litter size was restored to normal with 6.51 pups from 7 matings with a total of 46 offspring. […] The CAST ANKRD16 is the full length version of ANKRD16, also called ANKRD^361.

sti/sti Purkinje cells [3] = assay: ubiquitinated protein inclusions in sti/sti Purkinje cells; format: in vivo, mouse; settings: sti/sti mice, 4, 6 and 12 weeks of age
Text: FIGS. 9A and B. Graphs illustrating that the expression of full length ANKRD16 reduces protein inclusions in sti/sti Purkinje cells. Sti/sti means homozygous sticky mice (B6.Cg-Aarssti/J). ANKRD16; sti/sti means homozygous sticky mice intercrossed with mice expressing full length ANKRD16. […] 4W means brains were isolated from 4 week old mice, 6W for 6 week old mice and 12 W for 12 week old mice.
Brains from homozygous sticky mice (sti/sti; B6.Cg-Aarssti/J; available from The Jackson Laboratory Stock Number 002560) and sticky mice intercrossed with transgenic mice expressing the full length ANKRD16, were isolated at the age of 4 weeks, 6 weeks and 12 weeks. The brains were processed for sectioning and antibody staining using standard histological methods. Sagittal sections were prepared and immunostained with antibodies against ubiquitin and calbindin. The antibodies against calbidin D-28 were used to visualize Purkinje cells. The antibodies against ubiquitin were used to visualize ubiquitinated protein aggregates. Purkinje cells with ubiquitinated aggregates were counted from three sections spaced at 100 micrometer beginning at midline and working laterally per mouse. Three mice from each genotype were analyzed. The total number of Purkinje cells with inclusions as well as the % of remaining Purkinje cells with inclusions are shown in the graphs in FIGS. 9A and 9B.

[4] = test system: ubiquitin/proteasome pathway; assay: UbG76V-GFP proteasome reporter in mouse embryonic fibroblasts (FACS); format: cell-based; settings: ANKRD16^CAST double transgenic fibroblasts, 1.5 uM epoximicin for 6 hours
Method: FIG. 13. […] Mouse embryonic fibroblasts were analyzed from UbG76V-GFP transgenic and UbG76V-GFP; ANKRD16^CAST double transgenic mice; untreated and treated with 1000 nM epoximicin for 6; 12 or 18 hours (hr). The presence of the ANKRD16^CAST allele leads to reduced GFP intensity which correlates with increased proteasome activity.
Two lines of transgenic mice, UB^G76V-1 and UB^G76V-2, were generated with a ubiquitin-fusion GFP driven by the chicken β-actin promoter (Lindsten et al., 2003a; Lindsten et al., 2003b). UbG76V-GFP transgenic mice are available from The Jackson Laboratory (stock number 008111 and 008112). These mice ubiquitously express transcripts for the transgene, but as expected from the short half-life of the modified GFP protein, GFP is undetectable in all tissues analyzed. […]
UbG76V-GFP transgenic mice were intercrossed with the BAC transgenic mice carrying the CAST allele of ANKRD16, which gives rise to full length ANKRD16 mRNA and protein, yielding in double transgenic called UbG76V-GFP; ANKRD16^CAST. […] Using Western blot analysis the expression of ANKRD16 was analyzed showing an upregulation of ANKRD16 in the double transgenic mice UbG76V-GFP; ANKRD16 6^CAST. […]

[5] = test system: mouse embryonic fibroblasts; assay: epoximicin-induced cell death of mouse embryonic fibroblasts (propidium iodide, FACS); format: cell-based; settings: epoximicin 400 nM to 2500 nM for 18 hours
Method: FIG. 14. […] Fibroblasts with different genotypes were compared: WT means C57BL/6J; UbG76VGFP transgenic and ANKRD16^CAST UbG76V-GFP double transgenic.
Mouse embryonic fibroblasts were treated with 1.5 uM epoximicin for 6 hours before the GFP (green fluorescent protein) levels were analyzed by fluorescence microscopy (data not shown) or fluorescence-activated cell sorting (FACS) analysis (FIG. 13). Mouse embryonic fibroblasts not expressing the ANKRD16^CAST allele show a higher GFP level. […] The proteasome inhibitor epoximicin prevents the rapid degradation of GFP in the proteasome. […] Further the embryonic fibroblasts from the C57BL/6J wild type (WT), UbG76V-GFP transgenic and UbG76V-GFP; ANKRD16^CAST double transgenic mice were treated with various concentrations of epoximicin for 18 hours. The epoximicin concentrations ranged from 400 nM to 2500 nM (see FIG. 14). Fibroblasts were stained with propidium iodide to evaluate the percentage of cell death by FACS analysis.

B1: ANKRD16^CAST: full length (361 amino acid) ANKRD16 from the CAST allele, expressed from congenic region or transgene in mice and cells (protein)
chain: MALPGDPRRLCRLVQEGRLRDLQEELAVARGCRGPAGDTLLHCAARHGRQDILAYLVEAWSMDIEATNRDYKRPLHEAASMGHRDCVRYLLGRGAVVDSLKKADWTPLMMACTRKNLDVIQDLVEHGANPLLKNKDGWNSFHIASREGHPVILRYLLTVCPDAWKTESNIRRTPLHTAAMHGCLEAVQVLLERCHYEPDCRDNCGVTPFMDAIQCGHVSIAKLLLEQHKACSSAADSMGAQALHRAAVTGQDEAIRFLVCGLGIDVDVRAKSSQLTALHYAAKEGQTNTVQTLLSLGADINSTDERNRSVLHLACAGQHVACTRLLLQSGLKDSADLTGTLAQQLMRSVDILQDFDHDVKS
[1]
  rescue from serine-induced cell death: completely rescued
sti/sti Purkinje cells [2]; sti/sti mice carrying the transgene, 3 months of age
  ataxia: no signs of ataxia
sti/sti Purkinje cells [2]; sti/sti mice, Pcp2 (L7) promoter
  Purkinje cell death (calbindin D-28 immunohistochemistry): suppression of Purkinje cell death
Sticky mutant mice
  litter size: 6.51 pups
sti/sti Purkinje cells [3]
  Purkinje cells with protein aggregates: reduces Purkinje cells with protein aggregates
[4]
  green fluorescence from GFP: greatly reduced
[5]
  cell death: reduced cell death
